# Experiments:
# [1] = target: T1, EGFR (UniProt P00533 25-645, limits assumed, biotinylated); assay: direct bind ELISA, C-term VD;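 further: ELISA with antibody or DVD-Ig preparations applied to target antigen-coated plates for 1 h at room temperature, TMB colour development, absorbance read at 450 nm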
# T1 construct: ELISA antigen; construct not described
# [2] = target: T2, ErbB3 (UniProt P21860 20-643, limits assumed, biotinylated); assay: direct bind ELISA, N-term VD;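 further: antibody or DVD-Ig preparations bound to immobilized target antigen on ELISA plates, 1 h at room temperature, TMB detection read as absorbance at 450 nm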
# T2 construct: ELISA antigen
Binder,EC50 [1] [nM],EC50 [2] [nM]
"DVD772 (bispecific antibody, DVD-Ig; HC L, LC L; variable parts only) VH: EVQLVESGGGLVQPGGSLRLSCAASGFTFSIYSMNWVRQAPGKGLEWVSYISSSSSTIYYADSVKGRFTISRDNAKNSLYLQMNSLRDEDTAVYYCARDRGDFDAFDIWGQGTMVTVSSASTKGPSVFPLAPQVQLQESGPGLVKPSQTLSLTCTVSGYSISSDFAWNWIRQPPGKGLEWMGYISYSGNTRYQPSLKSRITISRDTSKNQFFLKLNSVTAADTATYYCVTAGRGFPYWGQGTLVTVSS VL: DIQMTQSPSSLSASVGDRVTITCQASQDITNYLNWYQQKPGKAPKLLIYDASNLETGVPSRFSGSGSGTDFTFTISSLQPEDIATYNCQQCENFPITFGQGTRLEIKRTVAAPSVFIFPPDIQMTQSPSSMSVSVGDRVTITCHSSQDINSNIGWLQQKPGKSFKGLIYHGTNLDDGVPSRFSGSGSGTDYTLTISSLQPEDFATYYCVQYAQFPWTFGGGTKLEIKR",77.2,31.4
"DVD802 (bispecific antibody, DVD-Ig; HC L, LC S; variable parts only) VH: EVQLVESGGGLVQPGGSLRLSCAASGFTFSIYSMNWVRQAPGKGLEWVSYISSSSSTIYYADSVKGRFTISRDNAKNSLYLQMNSLRDEDTAVYYCARDRGDFDAFDIWGQGTMVTVSSASTKGPSVFPLAPQVQLQESGPGLVKPSQTLSLTCTVSGYSISSDFAWNWIRQPPGKGLEWMGYISYSGNTRYQPSLKSRITISRDTSKNQFFLKLNSVTAADTATYYCVTAGRGFPYWGQGTLVTVSS VL: DIQMTQSPSSLSASVGDRVTITCQASQDITNYLNWYQQKPGKAPKLLIYDASNLETGVPSRFSGSGSGTDFTFTISSLQPEDIATYNCQQCENFPITFGQGTRLEIKRTVAAPDIQMTQSPSSMSVSVGDRVTITCHSSQDINSNIGWLQQKPGKSFKGLIYHGTNLDDGVPSRFSGSGSGTDYTLTISSLQPEDFATYYCVQYAQFPWTFGGGTKLEIKR",726,11.1
"DVD832 (bispecific antibody, DVD-Ig; HC S, LC L; variable parts only) VH: EVQLVESGGGLVQPGGSLRLSCAASGFTFSIYSMNWVRQAPGKGLEWVSYISSSSSTIYYADSVKGRFTISRDNAKNSLYLQMNSLRDEDTAVYYCARDRGDFDAFDIWGQGTMVTVSSASTKGPQVQLQESGPGLVKPSQTLSLTCTVSGYSISSDFAWNWIRQPPGKGLEWMGYISYSGNTRYQPSLKSRITISRDTSKNQFFLKLNSVTAADTATYYCVTAGRGFPYWGQGTLVTVSS VL: DIQMTQSPSSLSASVGDRVTITCQASQDITNYLNWYQQKPGKAPKLLIYDASNLETGVPSRFSGSGSGTDFTFTISSLQPEDIATYNCQQCENFPITFGQGTRLEIKRTVAAPSVFIFPPDIQMTQSPSSMSVSVGDRVTITCHSSQDINSNIGWLQQKPGKSFKGLIYHGTNLDDGVPSRFSGSGSGTDYTLTISSLQPEDFATYYCVQYAQFPWTFGGGTKLEIKR",62.4,1.19
"DVD328 (bispecific antibody, DVD-Ig; HC S, LC S; variable parts only) VH: QVQLQQWGAGLLKPSETLSLTCAVYGGSFSGYYWSWIRQPPGKGLEWIGEINHSGSTNYNPSLKSRVTISVETSKNQFSLKLSSVTAADTAVYYCARDKWTWYFDLWGRGTLVTVSSASTKGPQVQLQESGPGLVKPSQTLSLTCTVSGYSISSDFAWNWIRQPPGKGLEWMGYISYSGNTRYQPSLKSRITISRDTSKNQFFLKLNSVTAADTATYYCVTAGRGFPYWGQGTLVTVSS VL: DIEMTQSPDSLAVSLGERATINCRSSQSVLYSSSNRNYLAWYQQNPGQPPKLLIYWASTRESGVPDRFSGSGSGTDFTLTISSLQAEDVAVYYCQQYYSTPRTFGQGTKVEIKRTVAAPDIQMTQSPSSMSVSVGDRVTITCHSSQDINSNIGWLQQKPGKSFKGLIYHGTNLDDGVPSRFSGSGSGTDYTLTISSLQPEDFATYYCVQYAQFPWTFGGGTKLEIKR",94.9,1.14
"DVD330 (bispecific antibody, DVD-Ig; HC S, LC S; variable parts only) VH: EVQLVESGGGLVQPGGSLRLSCAASGFTFSIYSMNWVRQAPGKGLEWVSYISSSSSTIYYADSVKGRFTISRDNAKNSLYLQMNSLRDEDTAVYYCARDRGDFDAFDIWGQGTMVTVSSASTKGPQVQLQESGPGLVKPSQTLSLTCTVSGYSISSDFAWNWIRQPPGKGLEWMGYISYSGNTRYQPSLKSRITISRDTSKNQFFLKLNSVTAADTATYYCVTAGRGFPYWGQGTLVTVSS VL: DIQMTQSPSSLSASVGDRVTITCQASQDITNYLNWYQQKPGKAPKLLIYDASNLETGVPSRFSGSGSGTDFTFTISSLQPEDIATYNCQQCENFPITFGQGTRLEIKRTVAAPDIQMTQSPSSMSVSVGDRVTITCHSSQDINSNIGWLQQKPGKSFKGLIYHGTNLDDGVPSRFSGSGSGTDYTLTISSLQPEDFATYYCVQYAQFPWTFGGGTKLEIKR",224,1.29
"DVD800 (bispecific antibody, DVD-Ig; HC L, LC S; variable parts only) VH: QVQLQQWGAGLLKPSETLSLTCAVYGGSFSGYYWSWIRQPPGKGLEWIGEINHSGSTNYNPSLKSRVTISVETSKNQFSLKLSSVTAADTAVYYCARDKWTWYFDLWGRGTLVTVSSASTKGPSVFPLAPQVQLQESGPGLVKPSQTLSLTCTVSGYSISSDFAWNWIRQPPGKGLEWMGYISYSGNTRYQPSLKSRITISRDTSKNQFFLKLNSVTAADTATYYCVTAGRGFPYWGQGTLVTVSS VL: DIEMTQSPDSLAVSLGERATINCRSSQSVLYSSSNRNYLAWYQQNPGQPPKLLIYWASTRESGVPDRFSGSGSGTDFTLTISSLQAEDVAVYYCQQYYSTPRTFGQGTKVEIKRTVAAPDIQMTQSPSSMSVSVGDRVTITCHSSQDINSNIGWLQQKPGKSFKGLIYHGTNLDDGVPSRFSGSGSGTDYTLTISSLQPEDFATYYCVQYAQFPWTFGGGTKLEIKR",67.3,2.06
"DVD830 (bispecific antibody, DVD-Ig; HC S, LC L; variable parts only) VH: QVQLQQWGAGLLKPSETLSLTCAVYGGSFSGYYWSWIRQPPGKGLEWIGEINHSGSTNYNPSLKSRVTISVETSKNQFSLKLSSVTAADTAVYYCARDKWTWYFDLWGRGTLVTVSSASTKGPQVQLQESGPGLVKPSQTLSLTCTVSGYSISSDFAWNWIRQPPGKGLEWMGYISYSGNTRYQPSLKSRITISRDTSKNQFFLKLNSVTAADTATYYCVTAGRGFPYWGQGTLVTVSS VL: DIEMTQSPDSLAVSLGERATINCRSSQSVLYSSSNRNYLAWYQQNPGQPPKLLIYWASTRESGVPDRFSGSGSGTDFTLTISSLQAEDVAVYYCQQYYSTPRTFGQGTKVEIKRTVAAPSVFIFPPDIQMTQSPSSMSVSVGDRVTITCHSSQDINSNIGWLQQKPGKSFKGLIYHGTNLDDGVPSRFSGSGSGTDYTLTISSLQPEDFATYYCVQYAQFPWTFGGGTKLEIKR",42.7,1.43

# Stronger by EC50 [1], values ahead:
EC50 [1] [nM],EC50 [2] [nM],Binder
19.3,3.32,"DVD818 (bispecific antibody, DVD-Ig; HC L, LC S; variable parts only) VH: EVQLLESGGGLVQPGGSLRLSCAASGFTFSHYVMAWVRQAPGKGLEWVSSISSSGGWTLYADSVKGRFTISRDNSKNTLYLQMNSLRAEDTAVYYCTRGLKMATIFDYWGQGTLVTVSSASTKGPSVFPLAPQVQLQESGPGLVKPSQTLSLTCTVSGYSISSDFAWNWIRQPPGKGLEWMGYISYSGNTRYQPSLKSRITISRDTSKNQFFLKLNSVTAADTATYYCVTAGRGFPYWGQGTLVTVSS VL: QSALTQPASVSGSPGQSITISCTGTSSDVGSYNVVSWYQQHPGKAPKLIIYEVSQRPSGVSNRFSGSKSGNTASLTISGLQTEDEADYYCCSYAGSSIFVIFGGGTKVTVLGQPKAAPDIQMTQSPSSMSVSVGDRVTITCHSSQDINSNIGWLQQKPGKSFKGLIYHGTNLDDGVPSRFSGSGSGTDYTLTISSLQPEDFATYYCVQYAQFPWTFGGGTKLEIKR"
18,3.14,"DVD788 (bispecific antibody, DVD-Ig; HC L, LC L; variable parts only) VH: EVQLLESGGGLVQPGGSLRLSCAASGFTFSHYVMAWVRQAPGKGLEWVSSISSSGGWTLYADSVKGRFTISRDNSKNTLYLQMNSLRAEDTAVYYCTRGLKMATIFDYWGQGTLVTVSSASTKGPSVFPLAPQVQLQESGPGLVKPSQTLSLTCTVSGYSISSDFAWNWIRQPPGKGLEWMGYISYSGNTRYQPSLKSRITISRDTSKNQFFLKLNSVTAADTATYYCVTAGRGFPYWGQGTLVTVSS VL: QSALTQPASVSGSPGQSITISCTGTSSDVGSYNVVSWYQQHPGKAPKLIIYEVSQRPSGVSNRFSGSKSGNTASLTISGLQTEDEADYYCCSYAGSSIFVIFGGGTKVTVLGQPKAAPSVTLFPPDIQMTQSPSSMSVSVGDRVTITCHSSQDINSNIGWLQQKPGKSFKGLIYHGTNLDDGVPSRFSGSGSGTDYTLTISSLQPEDFATYYCVQYAQFPWTFGGGTKLEIKR"
16.7,3.23,"DVD848 (bispecific antibody, DVD-Ig; HC S, LC L; variable parts only) VH: EVQLLESGGGLVQPGGSLRLSCAASGFTFSHYVMAWVRQAPGKGLEWVSSISSSGGWTLYADSVKGRFTISRDNSKNTLYLQMNSLRAEDTAVYYCTRGLKMATIFDYWGQGTLVTVSSASTKGPQVQLQESGPGLVKPSQTLSLTCTVSGYSISSDFAWNWIRQPPGKGLEWMGYISYSGNTRYQPSLKSRITISRDTSKNQFFLKLNSVTAADTATYYCVTAGRGFPYWGQGTLVTVSS VL: QSALTQPASVSGSPGQSITISCTGTSSDVGSYNVVSWYQQHPGKAPKLIIYEVSQRPSGVSNRFSGSKSGNTASLTISGLQTEDEADYYCCSYAGSSIFVIFGGGTKVTVLGQPKAAPSVTLFPPDIQMTQSPSSMSVSVGDRVTITCHSSQDINSNIGWLQQKPGKSFKGLIYHGTNLDDGVPSRFSGSGSGTDYTLTISSLQPEDFATYYCVQYAQFPWTFGGGTKLEIKR"
15.2,1.55,"DVD770 (bispecific antibody, DVD-Ig; HC L, LC L; variable parts only) VH: QVQLQQWGAGLLKPSETLSLTCAVYGGSFSGYYWSWIRQPPGKGLEWIGEINHSGSTNYNPSLKSRVTISVETSKNQFSLKLSSVTAADTAVYYCARDKWTWYFDLWGRGTLVTVSSASTKGPSVFPLAPQVQLQESGPGLVKPSQTLSLTCTVSGYSISSDFAWNWIRQPPGKGLEWMGYISYSGNTRYQPSLKSRITISRDTSKNQFFLKLNSVTAADTATYYCVTAGRGFPYWGQGTLVTVSS VL: DIEMTQSPDSLAVSLGERATINCRSSQSVLYSSSNRNYLAWYQQNPGQPPKLLIYWASTRESGVPDRFSGSGSGTDFTLTISSLQAEDVAVYYCQQYYSTPRTFGQGTKVEIKRTVAAPSVFIFPPDIQMTQSPSSMSVSVGDRVTITCHSSQDINSNIGWLQQKPGKSFKGLIYHGTNLDDGVPSRFSGSGSGTDYTLTISSLQPEDFATYYCVQYAQFPWTFGGGTKLEIKR"
